Tests used:
human IL-36R on cells [1] = target: T1, human IL-36R on cells (human, UniProt Q9HB29 20-575); assay: flow cytometry, HEK293 cells transfected with full-length human IL-36R
T1 construct: whole, on cells; also called full-length human IL-36R on HEK293 transfectants; HEK-IL-36R cells
T1 sequence (looked up): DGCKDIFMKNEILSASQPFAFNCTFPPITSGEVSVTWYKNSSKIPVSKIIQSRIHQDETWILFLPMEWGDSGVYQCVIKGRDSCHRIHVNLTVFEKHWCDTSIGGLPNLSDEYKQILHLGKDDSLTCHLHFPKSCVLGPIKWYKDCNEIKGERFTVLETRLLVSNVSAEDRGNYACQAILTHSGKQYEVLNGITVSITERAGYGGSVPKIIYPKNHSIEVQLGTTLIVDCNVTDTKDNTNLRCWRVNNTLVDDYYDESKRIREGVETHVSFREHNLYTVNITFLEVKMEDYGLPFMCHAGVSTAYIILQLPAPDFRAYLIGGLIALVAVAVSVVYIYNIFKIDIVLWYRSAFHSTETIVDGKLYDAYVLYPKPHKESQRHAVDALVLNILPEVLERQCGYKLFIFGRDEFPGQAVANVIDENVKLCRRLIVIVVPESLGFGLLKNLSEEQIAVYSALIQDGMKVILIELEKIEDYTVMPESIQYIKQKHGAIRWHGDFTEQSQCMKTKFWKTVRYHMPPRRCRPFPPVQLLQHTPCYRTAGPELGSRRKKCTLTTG
Experimental: HEK293 cells transfected with full-length human IL-36R or NCI/ADR-RES cells were passaged for 24 hours prior to staining. Cells were removed from flasks by rinsing with 10 ml of 5 mM EDTA in PBS, and then incubated at 37° C. for 10 min with an additional 10 ml of 5 mM EDTA and 2.5 ml of Accumax to declump/disperse cells. Antibodies were then diluted to specified concentrations in PBS+2% BSA, and cells incubated for 20 min at room temperature. Excess antibody was then washed by adding 200 μl of PBS and then centrifuged. Secondary reagent was then added at 50 μl per well and cells are incubated for 15 min at room temperature and then washed as above. Cells were resuspended in 200 μl PBS and analyzed by flow cytometry.

[2] = target: cynomolgus IL-36R on BaF/3 cells (cynomolgus, UniProt A0A2K5WSK9 20-558); assay: cell-based or functional assay
Sequence of cynomolgus IL-36R on BaF/3 cells (A0A2K5WSK9 entry or part of it): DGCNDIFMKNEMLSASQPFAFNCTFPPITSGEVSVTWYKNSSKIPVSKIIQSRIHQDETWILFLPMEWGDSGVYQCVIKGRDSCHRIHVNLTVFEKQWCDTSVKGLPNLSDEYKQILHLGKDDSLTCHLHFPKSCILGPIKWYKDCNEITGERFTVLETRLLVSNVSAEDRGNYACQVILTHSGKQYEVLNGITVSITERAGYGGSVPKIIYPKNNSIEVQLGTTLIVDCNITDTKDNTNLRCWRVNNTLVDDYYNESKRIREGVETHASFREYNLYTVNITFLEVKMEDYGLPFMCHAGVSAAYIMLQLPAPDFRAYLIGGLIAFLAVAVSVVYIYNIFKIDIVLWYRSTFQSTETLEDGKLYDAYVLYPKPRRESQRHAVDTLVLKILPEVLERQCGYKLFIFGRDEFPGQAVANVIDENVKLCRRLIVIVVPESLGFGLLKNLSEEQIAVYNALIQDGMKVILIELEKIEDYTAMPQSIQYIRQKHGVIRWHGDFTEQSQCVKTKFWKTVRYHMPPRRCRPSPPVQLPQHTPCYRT

human IL-36R on cells [3] = target: T1, human IL-36R on cells; assay: cell-based or functional assay
human IL-36R on cells [4] = target: T1, human IL-36R on cells; assay: cell-based or functional assay; remark: listed apart in the source
[5] = target: T2, recombinant human IL-36R (ECD) (human, UniProt Q9HB29 20-332); assay: SPR (ProteOn), single IL-36R surface coat concentration
T2 construct: range 20-332; also called IL-1RL2; IL-1Rrp2
T2 sequence (looked up): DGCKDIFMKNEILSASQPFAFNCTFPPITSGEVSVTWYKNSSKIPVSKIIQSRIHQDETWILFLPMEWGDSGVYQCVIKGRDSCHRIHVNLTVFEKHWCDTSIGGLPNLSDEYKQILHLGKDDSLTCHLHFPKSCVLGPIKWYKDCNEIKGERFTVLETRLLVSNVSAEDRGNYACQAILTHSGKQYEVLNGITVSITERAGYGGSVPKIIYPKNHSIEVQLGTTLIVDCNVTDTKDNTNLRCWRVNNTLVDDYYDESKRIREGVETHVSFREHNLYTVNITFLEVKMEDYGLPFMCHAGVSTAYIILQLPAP
Experimental: A) Kinetics and binding affinities of anti-IL-36R antibodies binding to recombinant human IL-36R were measured using the Proteon (Bio-Rad, Hercules, Calif.) using material generated from hybridoma following single column purification. […] Binding of the chimeric anti-IL36R IgGs is equivalent to the respective mouse leads.

human IL-1R1 = target: T3, human IL-1R1 (human, UniProt P14778 18-336, limits assumed); assay: BLI (Fortebio Octet), antibody injected over antigen surface
T3 construct: also called IL-1RI
T3 sequence (looked up): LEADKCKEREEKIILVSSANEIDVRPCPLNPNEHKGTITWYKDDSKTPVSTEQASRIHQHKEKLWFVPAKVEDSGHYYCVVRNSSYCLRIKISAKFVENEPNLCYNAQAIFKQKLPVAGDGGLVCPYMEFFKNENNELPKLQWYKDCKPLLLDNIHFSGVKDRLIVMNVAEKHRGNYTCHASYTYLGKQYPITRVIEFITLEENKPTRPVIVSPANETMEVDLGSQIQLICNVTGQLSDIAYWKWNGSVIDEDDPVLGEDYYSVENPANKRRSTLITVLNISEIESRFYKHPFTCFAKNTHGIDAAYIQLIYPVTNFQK
Experimental: (§1) B) Molecular selectivity over mouse IL-36R and human IL-1R1 The mouse and chimeric anti-IL-36R antibodies were also injected over either a mouse IL-36R or a human IL-1R1 surface at a concentration of 100 nM. The binding signal to mouse IL-36R and to human IL-1R1 for these antibodies measured using the Fortebio Octet (Fortebio, Menlo Park, Calif.) is zero, which indicates these antibodies selectively bind to human IL-36R.

mouse IL-36R = target: T4, mouse IL-36R (mouse, UniProt Q9ERS7 22-338); assay: as above
T4 sequence (looked up): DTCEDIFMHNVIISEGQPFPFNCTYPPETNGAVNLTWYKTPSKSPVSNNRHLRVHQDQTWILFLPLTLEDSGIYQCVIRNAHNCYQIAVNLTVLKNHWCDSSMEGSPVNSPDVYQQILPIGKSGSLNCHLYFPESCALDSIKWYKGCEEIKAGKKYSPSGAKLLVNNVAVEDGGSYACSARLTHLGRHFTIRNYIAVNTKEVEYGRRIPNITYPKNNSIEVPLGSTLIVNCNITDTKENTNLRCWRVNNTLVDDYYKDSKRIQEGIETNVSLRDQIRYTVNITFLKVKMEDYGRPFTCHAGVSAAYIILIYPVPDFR
Experimental: as §1

[6] = target: T2, recombinant human IL-36R (ECD); assay: SPR (ProteOn), recombinant human IL-36R at 7 surface densities, global fit
Experimental: A) Kinetics and binding affinities of anti-IL-36R antibodies binding to recombinant human IL-36R were measured using the Proteon (Bio-Rad, Hercules, Calif.) using material generated from hybridoma following single column purification. […] The binding affinities of the mouse antibodies to human IL-36R run at 7 different surface densities (globally fit) is shown in Table 1. Binding of the chimeric anti-IL36R IgGs is equivalent to the respective mouse leads.

B1: antibody 33D10 (antibody, V domains shown)
VH: QVQLQQSGTELLKPGASVKLSCKASGNTVTSYWMHWVKQRPGQGLEWIGEILPSTGRTNYNENFKGKAMLTVDKSSSTAYMQLSSLASEDSAVYYCTIVYFGNPWFAYWGQGTLVTVSA
VL: QIVLTQSPAIMSASLGERVTMTCTASSSVSSSYLHWYQKKPGSSPKLWVYSTSNLASGVPVRFSGSGSGTSYSLTISSMEAEDAATYYCHQHHRSPVTFGSGTKLEMK
notes: Mouse monoclonal from hybridoma; also called 33D10B12; Mouse 33D10
EC50 (human IL-36R on cells [1]): 0.475 nM | IC90, pNFκB, BaF/3 cynomolgus IL-36R cells, trun-IL-36a [2]: > 4 µM | IC90, pNFκB, BaF/3 cynomolgus IL-36R cells, trun-IL-36b [2]: > 333 nM | IC90, pNFκB, BaF/3 cynomolgus IL-36R cells, trun-IL-36g [2]: > 333 nM | IC90, GM-CSF release, NCI/ADR-RES cells, trun-IL-36a (human IL-36R on cells [3]): 0.8 nM | IC90, GM-CSF release, NCI/ADR-RES cells, trun-IL-36b (human IL-36R on cells [3]): 0.6 nM | IC90, GM-CSF release, NCI/ADR-RES cells, trun-IL-36g (human IL-36R on cells [3]): 0.5 nM | IC90, IL-6 release, NCI/ADR-RES cells, trun-IL-36a (human IL-36R on cells [3]): 0.8 nM | IC90, IL-6 release, NCI/ADR-RES cells, trun-IL-36b (human IL-36R on cells [3]): 0.5 nM | IC90, IL-6 release, NCI/ADR-RES cells, trun-IL-36g (human IL-36R on cells [3]): 0.3 nM | IC90, IL-8 release, NCI/ADR-RES cells, trun-IL-36a (human IL-36R on cells [3]): 0.6 nM | IC90, IL-8 release, NCI/ADR-RES cells, trun-IL-36b (human IL-36R on cells [3]): 0.6 nM | IC90, IL-8 release, NCI/ADR-RES cells, trun-IL-36g (human IL-36R on cells [3]): 0.5 nM | IC90, pNFκB, NCI/ADR-RES cells, trun-IL-36a (human IL-36R on cells [3]): 1.7 nM | IC90, pNFκB, NCI/ADR-RES cells, trun-IL-36b (human IL-36R on cells [3]): 1.3 nM | IC90, pNFκB, NCI/ADR-RES cells, trun-IL-36g (human IL-36R on cells [3]): 1.1 nM | IC90, IL-8 release, human primary keratinocytes (NHK), trun-IL-36a (human IL-36R on cells [4]): 1.5 nM | IC90, IL-8 release, human primary keratinocytes (NHK), trun-IL-36b (human IL-36R on cells [4]): 3 nM | IC90, IL-8 release, human primary keratinocytes (NHK), trun-IL-36g (human IL-36R on cells [4]): 0.8 nM | IC90, pNFκB, human primary keratinocytes (NHK), trun-IL-36a (human IL-36R on cells [4]): 1.8 nM | IC90, pNFκB, human primary keratinocytes (NHK), trun-IL-36b (human IL-36R on cells [4]): 2.3 nM | IC90, pNFκB, human primary keratinocytes (NHK), trun-IL-36g (human IL-36R on cells [4]): 0.8 nM | Kd [5]: < 0.1 nM | binding result (human IL-1R1): no binding (tested: 100 nM) | binding result (mouse IL-36R): no binding (tested: 100 nM) | Kd [6]: 0.009 nM

Reference: US20200231684A1 (published 2020)
